Measured values reported in publication PMC11931385, “Structural and functional analysis of cancer-associated missense variants in the retinoblastoma protein pocket domain” (The Journal of Biological Chemistry, 2025).
No end group written: not given here. TMR = tetramethyl rhodamine dye

T1: Rb^P E492Q (human, UniProt P06400 380-788, E492Q)
T1 construct: also called variant 18
T1 sequence (looked up): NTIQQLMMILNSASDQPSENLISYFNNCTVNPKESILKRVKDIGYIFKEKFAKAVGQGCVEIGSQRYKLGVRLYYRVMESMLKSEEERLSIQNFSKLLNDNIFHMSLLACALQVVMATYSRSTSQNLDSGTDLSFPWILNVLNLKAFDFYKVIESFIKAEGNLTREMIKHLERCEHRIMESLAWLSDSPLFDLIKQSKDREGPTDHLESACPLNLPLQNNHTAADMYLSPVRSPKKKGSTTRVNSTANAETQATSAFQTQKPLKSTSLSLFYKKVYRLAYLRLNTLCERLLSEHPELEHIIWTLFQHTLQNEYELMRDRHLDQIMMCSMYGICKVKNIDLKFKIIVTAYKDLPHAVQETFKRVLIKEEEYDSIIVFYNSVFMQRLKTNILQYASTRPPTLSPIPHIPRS

T2: Rb^P S463L (human, UniProt P06400 380-788, S463L)
T2 construct: also called variant 10
T2 sequence (looked up): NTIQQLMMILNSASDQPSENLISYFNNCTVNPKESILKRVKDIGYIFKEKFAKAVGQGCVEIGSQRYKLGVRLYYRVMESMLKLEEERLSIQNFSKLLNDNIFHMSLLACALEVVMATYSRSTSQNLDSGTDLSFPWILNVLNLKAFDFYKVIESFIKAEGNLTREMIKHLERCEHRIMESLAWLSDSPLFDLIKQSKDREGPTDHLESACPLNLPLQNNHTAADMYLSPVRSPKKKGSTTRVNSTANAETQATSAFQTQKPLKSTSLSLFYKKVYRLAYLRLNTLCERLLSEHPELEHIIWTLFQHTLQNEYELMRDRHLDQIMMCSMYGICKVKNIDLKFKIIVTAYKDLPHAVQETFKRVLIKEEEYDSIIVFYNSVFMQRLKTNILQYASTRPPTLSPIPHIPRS

T3: Rb^P R611S (human, UniProt P06400 380-788, R611S)
T3 construct: also called variant 38
T3 sequence (looked up): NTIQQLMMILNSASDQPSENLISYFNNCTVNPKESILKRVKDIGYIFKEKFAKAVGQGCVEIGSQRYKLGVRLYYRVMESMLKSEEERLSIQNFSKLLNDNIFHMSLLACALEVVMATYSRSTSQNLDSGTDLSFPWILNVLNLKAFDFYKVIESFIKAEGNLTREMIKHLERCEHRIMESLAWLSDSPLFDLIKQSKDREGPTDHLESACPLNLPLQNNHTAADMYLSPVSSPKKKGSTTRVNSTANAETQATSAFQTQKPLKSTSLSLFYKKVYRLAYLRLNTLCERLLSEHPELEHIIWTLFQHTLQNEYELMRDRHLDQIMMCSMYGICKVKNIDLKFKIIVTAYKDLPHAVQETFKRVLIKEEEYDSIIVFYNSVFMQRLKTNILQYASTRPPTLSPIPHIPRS

T4: Rb^P K462T (human, UniProt P06400 380-788, K462T)
T4 construct: also called variant 9
T4 sequence (looked up): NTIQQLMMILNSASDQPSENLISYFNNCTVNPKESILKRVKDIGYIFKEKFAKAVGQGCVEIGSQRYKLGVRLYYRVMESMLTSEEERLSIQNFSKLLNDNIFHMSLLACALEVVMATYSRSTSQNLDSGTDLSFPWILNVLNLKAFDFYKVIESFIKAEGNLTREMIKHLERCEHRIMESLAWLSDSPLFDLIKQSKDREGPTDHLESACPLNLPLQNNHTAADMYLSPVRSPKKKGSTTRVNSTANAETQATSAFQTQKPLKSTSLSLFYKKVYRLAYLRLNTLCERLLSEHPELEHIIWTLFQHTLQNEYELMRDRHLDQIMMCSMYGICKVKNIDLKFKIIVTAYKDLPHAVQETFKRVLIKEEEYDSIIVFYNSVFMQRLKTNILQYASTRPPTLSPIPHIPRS

T5: Rb^P R741S (human, UniProt P06400 380-788, R741S)
T5 construct: also called variant 70
T5 sequence (looked up): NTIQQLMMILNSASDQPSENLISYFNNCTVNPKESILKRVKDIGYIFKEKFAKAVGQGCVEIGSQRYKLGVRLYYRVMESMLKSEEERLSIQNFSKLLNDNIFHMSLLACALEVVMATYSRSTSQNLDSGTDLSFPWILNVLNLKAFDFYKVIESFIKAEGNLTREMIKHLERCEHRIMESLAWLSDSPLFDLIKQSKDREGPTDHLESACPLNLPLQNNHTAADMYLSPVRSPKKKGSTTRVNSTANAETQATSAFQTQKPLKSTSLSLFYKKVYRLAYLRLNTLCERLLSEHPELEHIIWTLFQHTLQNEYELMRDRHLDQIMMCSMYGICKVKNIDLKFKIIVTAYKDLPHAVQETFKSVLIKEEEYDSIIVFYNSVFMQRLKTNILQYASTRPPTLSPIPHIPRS

B1: TMR-E2F1^TD, peptide of the E2F1 transactivation domain (peptide)
peptide: {TMR}-GEGIRDLFDCDFGDLTPLD
notes: also called E2F^TD; source: synthetic peptide, bought: GenScript
B2: TMR-E7^LxCxE, LxCxE peptide of the E7 oncoprotein from HPV (peptide)
peptide: DLYCYEQLN
modifications: also: TMR label, position not given here
notes: source: synthetic peptide, bought: GenScript

Columns and labels:
Experiment in all cases: fluorescence polarisation; 25 °C; unlabeled Rb^P titrated against 1.5 nM TMR-E2F1^TD or 7.5 nM TMR-E7^LxCxE; 25 mM Tris pH 8.0, 200 mM NaCl, 1 mM DTT, 0.1% Tween-20; 2 min incubation; quadratic fit; apparent Kd for the variants, Kd for WT
Settings in all cases: both partners purified
Rb^P E492Q = target: T1, Rb^P E492Q
Rb^P S463L = target: T2, Rb^P S463L
Rb^P R611S = target: T3, Rb^P R611S
Rb^P K462T = target: T4, Rb^P K462T
Rb^P R741S = target: T5, Rb^P R741S

Row | Binder | Kd (Rb^P E492Q) [nM] | Kd (Rb^P S463L) [nM] | Kd (Rb^P R611S) [nM] | Kd (Rb^P K462T) [nM] | Kd (Rb^P R741S) [nM]
1 | B1 | 22 | 26 | 15 | 30 | 32
2 | B2 | 14 | 10 | 5 | 8 | 16
